Experimental data as given in US7820179B2, “Pegylated PTH as PTH receptor modulators and uses thereof” (Eli Lilly and Company, priority 2006, dated 2010).
No end group written: not given here.

How the values were obtained:
Assay type in all cases: in vivo, rat
[1] = tested on: aged osteopenic ovariectomized rats; test: Direct comparison of 2 kD and 5 kD pegylated SEQ ID NO: 1 in aged osteopenic ovariectomized rats; details: for Serum Calcium: 24 hours after dosing
Description: A compound of the invention with SEQ ID NO: 1, wherein the mPEG to which it is conjugated is a 2 kD mPEG, is directly compared to a compound of the invention with SEQ ID NO: 1, wherein the mPEG to which it is conjugated is a 5 kD mPEG. Aged osteopenic ovariectomized rats are permitted to lose bone for one month before dosing (nmol/kg as in Table 5 and 6) every 6 days with vehicle alone, or the 2 kD pegylated SEQ ID NO: 1 compound or the 5 kD pegylated SEQ ID NO: 1 compound for 8 weeks.

[2] = tested on: young adult osteopenic ovariectomized rats; test: Young adult osteopenic ovariectomized rats: femur BMD (QCT) and serum calcium; details: young adult Ovx rats
Protocol: Female Sprague-Dawley rats about 3 months of age are ovariectomized, except for sham controls, and maintained on a 12 hour light/dark cycle at 22° C. with ad lib access to food (TD 89222 with 0.5% Ca and 0.4% P, Teklad, Madison, Wis.) and water. Ovariectomized (Ovx) rats are allowed to lose bone for 25 days, and then weighed and randomized into treatment groups. Treatment is by subcutaneous injection of a compound of the invention at various doses (as indicated in Table 2 below) for 1 month in a vehicle of 20 mM NaH2PO4 in 0.9% NaCl, 3 mg/ml mannitol, pH 5. The rats are injected with the compounds every third or fourth day to approximate once weekly administration to a human. Sham and Ovx controls are treated with the vehicle only (“sham vehicle control” and “ovx vehicle control”). Sera are collected by cardiac puncture approximately 24 hours after final injection under isoflurane anesthesia at necropsy (approximately 24 hours after the final injection), and analyzed using a clinical chemistry analyzer (Hitachi 917, Tokyo, Japan).
At necropsy, left femora are removed, cleaned of soft-tissue and stored in 50% ethanol/saline at 4° C. At room temperature, femora in 50% EtOH/saline are wrapped in Parafilm and centered with respect to the gantry for quantitative computed tomography (QCT) (Research M, Stratec). […]

[3] = tested on: aged osteopenic ovariectomized rats; test: Aged osteopenic ovariectomized rats: vertebral BMD/BMC, bone biomechanical strength, serum calcium
Protocol: Hypercalcemia is defined herein as the upper 97.5 percentile serum calcium value of normal ovariectomized vehicle controls for the animal type used, using clinical chemistry data and sera collected from cardiac puncture (International Federation of Clinical Chemistry, H E Solberg in Tietz Fundamentals of Clinical Chemistry, 5th edition, Burtis C A and Ashwood E R, editors, 2001, pp 251-261). The value reflecting the 97.5 percentile is 11.2 mg of calcium per dL of serum from ovx vehicle control. The “Hypercalcemic Dose”, i.e., the dose at which hypercalcemia is observed 24 hours after injection of the test compound using clinical chemistry data and sera collected from cardiac puncture, is determined by interpolation, using regression analysis to fit the calcemic dose response observed 24 hours after administering the compound to ovariectomized rats.
Female Sprague-Dawley rats about 6 months of age are ovariectomized, except for sham controls, and maintained on a 12 hour light/dark cycle at 22° C. with ad lib access to food (TD 89222 with 0.5% Ca and 0.4% P, Teklad, Madison, Wis.) and water. Ovariectomized (Ovx) rats are allowed to lose bone for one month before treatment with compounds of the invention for two additional months. The compound to be tested is subcutaneously administered at various doses (as indicated in Table 3 below) in a vehicle of 20 mM NaH2PO4 in 0.9% NaCl, 3 mg/ml mannitol, pH 5, every 6 or 7 days for two months. Sham and Ovx controls are treated with the vehicle only (“sham vehicle control” and “ovx vehicle control”). Sera are then collected by cardiac puncture under isoflurane anesthesia at necropsy, and analyzed using a clinical chemistry analyzer. Lumbar vertebra L4-6 and left femora are removed, cleaned of soft-tissue and stored in 50% ethanol/saline at 4° C. At room temperature, L-5 in 50% EtOH/saline are wrapped in Parafilm and centered with respect to the QCT gantry (Research M, Stratec). A coronal scout scan of the L-5 vertebra is generated first in 2D before 3D analysis. QCT parameters are measured including BMD (mg/cc), BMC (mg), and cross-sectional area (mm^2). Lumbar vertebra L-5, femoral midshaft, and proximal femur are then prepared for biomechanical testing. Strength (N) is evaluated by loading the specimens to failure as described previously (Sato, et al., Endocrinology, […]:4330-4337, 1997).
Pegylated compounds of the invention are evaluated in this assay relative to a positive control of 3-5 μg/kg/d PTH(1-38). PTH(1-34) and PTH(1-38) are found to be indistinguishable in terms of skeletal efficacy or calcemic effects in osteopenic ovariectomized rats. It has been previously shown that rats administered 5 μg/kg/d (1 nmol/kg/d) PTH(1-34) have a systemic exposure that is about 3 times that of PTH(1-34) (i.e., FORTEO™) in humans (Tashjian and Chabner, J. Bone Miner Res, 17:1151-1161, 2002; Tashjian and Gagel, J. Bone Miner Res, 21:354-365, 2006). […] This is confirmed for PTH(1-38) in this model with a dosing of 3-5 μg/kg/d.

[4] = 11 nmol/kg every 6 days for 8 weeks
[5] = 32 nmol/kg every 6 days for 8 weeks
[6] = 108 nmol/kg every 6 days for 8 weeks

**Q.** What does the source list for “SEQ ID NO: 1 with 5 kD mPEG (SVSEIQLMHNLGRHLASMERVEWLRKLLQDVHNF-NH2; not fully specified (residue 26))”?
**A.** Vertebral BMD [1, 4]: 567 mg/cc; Serum Calcium [1, 4]: 10.86 mg/dL; Vertebral BMD [1, 5]: 589 mg/cc; Serum Calcium [1, 5]: 10.79 mg/dL; Vertebral BMD [1, 6]: 612 mg/cc; Serum Calcium [1, 6]: 11.03 mg/dL; Hypercalcemic Dose/BMD Dose [2]: >8.8; Hypercalcemic Dose/Femoral Neck Strength Dose ([3]; derived from Table 3): >9.7; Hypercalcemic Dose/Midshaft Strength Dose ([3]; derived from Table 3): >1.0; Hypercalcemic Dose/Vertebral BMC Dose ([3]; derived from Table 3): >3.34; Hypercalcemic Dose/Vertebral BMD Dose ([3]; derived from Table 3): >1.0; Hypercalcemic Dose/Vertebral Strength Dose ([3]; derived from Table 3): >1.0; Vertebral BMC Dose ([3]; dose at which Sham level of vertebral BMC is achieved): 32 nmol/kg; Vertebral BMD Dose ([3]; dose at which Sham level of vertebral BMD is achieved, s.c. every 6 or 7 days for two months): >108 nmol/kg; Fem Neck Strength Dose ([3]; dose at which femoral neck strength comparable to sham vehicle control and positive control is achieved): 11 nmol/kg; Midshaft Strength Dose ([3]; dose at which midshaft strength comparable to sham vehicle control and positive control is achieved): 108 nmol/kg; Vertebral Strength Dose ([3]; dose at which vertebral strength comparable to sham and positive control is achieved): 108 nmol/kg; Hypercalcemia Dose ([3]; sera 24 hours after administration, > means highest dose tested, not reached): >107 nmol/kg
